Test results: US20240043495A1, “DSG2 COMPOSITIONS AND METHODS FOR THE TREATMENT OF COVID-19” (priority 2020, published 2024)

Key:
[1] = system: human iPSC cardiomyocytes; test: CiPA multielectrode array (MEA) assay, cardiomyocyte sodium spike; assay type: cell-based; details: voltage (μV) at 0-96 hours; antibodies/IgG 0.5 μg/mL; lidocaine 10 μM; FIG. 5
Experimental: To determine the effect of anti-DSG2 antibodies in cardiomyocytes, the cardiac in vitro proarrhythmia (CiPA) assay was performed (Sager et al. Am Heart J 2014; 167:292-300; the contents of which are herein incorporated by reference in its entirety). CiPA is envisioned to consist of four components: (1) an evaluation of the effects of test agents on cardiac ion channel assays; (2) in silico modeling of the cardiac action potential based on the ion channel results to integrate the data with cardiac function; (3) experimental measurement of test agent effects in human ventricular myocytes to confirm the modeling result; and (4) scoring the results. […] The sodium spike quantified below is a measurement of the specific sodium channel current in the cardiomyocyte and is also described in Blinova K, et al. Cell Rep. […] The parameters evaluated include measuring a change in the spike in the component of electrical signal propagation (e.g. sodium spike) and cell index—a function of cell impedance and cell number. […]
Commercially available anti-DSG2 antibodies were tested in the cardiomyocyte CiPA assay. […] The voltage (μV) is measured at time intervals of 0, 1 hour, 12 hours, 24 hours, 48 hours, 72 hours, and 96 hours. […]

[2] = system: human iPSC cardiomyocytes; test: iPSC-derived cardiomyocyte MEA assay, cell index; assay type: cell-based; details: antibodies 0.00005 to 5 μg/mL; lidocaine 3 to 100 μM
Experimental: To determine the effect of anti-DSG2 antibodies in cardiomyocytes, the cardiac in vitro proarrhythmia (CiPA) assay was performed (Sager et al. Am Heart J 2014; 167:292-300; the contents of which are herein incorporated by reference in its entirety). CiPA is envisioned to consist of four components: (1) an evaluation of the effects of test agents on cardiac ion channel assays; (2) in silico modeling of the cardiac action potential based on the ion channel results to integrate the data with cardiac function; (3) experimental measurement of test agent effects in human ventricular myocytes to confirm the modeling result; and (4) scoring the results. The multielectrode array (MEA) assay is a component of CiPA which uses human induced pluripotent stem cell (iPSC)-derived cardiomyocytes to evaluate two-dimensional excitation propagation by recording spontaneous ECG-like field potentials. The sodium spike quantified below is a measurement of the specific sodium channel current in the cardiomyocyte and is also described in Blinova K, et al. Cell Rep. 2018 Sep. 25; 24(13):3582-3592 (the contents of which are herein incorporated by reference in its entirety). […] The parameters evaluated include measuring a change in the spike in the component of electrical signal propagation (e.g. sodium spike) and cell index—a function of cell impedance and cell number. […]

[3] = biological target: Anti-DSG2 antibody; test: anti-DSG2 antibody MSD assay; inhibition of the signal of anti-DSG2 antibody at 200 ng/mL (control)
[4] = biological target: Anti-DSG2 antibody; test: anti-DSG2 antibody MSD assay; inhibition of the signal of anti-DSG2 antibody at 1000 ng/mL (control)
[5] = system: anti-DSG2 antibodies in sera of post-COVID-19 patients; test: Electrochemical immunoassay: blocking of post-COVID-19 patient sera binding to the DSG2 extracellular domain; set-up: species or system human; details: fusion polypeptide 10 μg/mL, post-COVID-19 patient sera 10% (v/v), FIG. 3
Experimental: DSG2 fusion polypeptides were investigated for the ability to block the binding of anti-DSG2 antibodies in sera of post-COVID-19 patients to the DSG2 extracellular domain in an electrochemical immunoassay. The fusion polypeptides were added to a final concentration of 10 μg/mL and patient sera were used at a final concentration of 10% (v/v). The results are shown in the series of bar charts in FIG. 3, where the numbers 001, 002, 003, 004, 005 and 006 indicate individual post-COVID-19 patient serum samples.
In FIG. 3, the first data series from the left is for DSG2FP #1 (described above as amino acids 49-608 of SEQ ID NO:30; Linker (IEGRMD (SEQ ID NO: 28)); amino acids 100-330 of IgG1 (SEQ ID NO: 4). The second data series from the left is for DSG2(50-602)-6xHis, which is a fusion polypeptide of DSG2 amino acids 50-602 of SEQ ID NO: 1 (complete extracellular domain) to a hexahistidine peptide tag. The third data series from the left is for a combination of fusion polypeptides which includes EC1(50-155)-6xHis, a fusion of DSG2 amino acids 50-155 of SEQ ID NO: 1 (EC1) to a hexahistidine peptide tag and EC2(151-268)-6xHis, a fusion of DSG2 amino acids 151-268 of SEQ ID NO: 1 (EC2) to a hexahistidine peptide tag. The fourth data series from the left is for EA(491-602)-6xHis, a fusion of DSG2 amino acids 491-602 of SEQ ID NO: 1 (EA) to a hexahistidine peptide tag. […]

**Q.** Which results are given for `CCN(CC)CC(=O)Nc1c(C)cccc1C` [Lidocaine, lidocaine]?
**A.** effect on cardiomyocyte sodium spike [1]: dampen the sodium spike; effect on cell index (in words) [2]: marked reduction in cell index and likely cell death

**Q.** What does the source list for “recombinant human desmoglein-2 Fc chimera protein, CF (R&D Systems) (Fc fusion)”?
**A.** % inhibition [3]: 63.8%; % inhibition [4]: 88.4%

B1: DSG2(50-602)-6xHis: fusion polypeptide of DSG2 amino acids 50-602 of SEQ ID NO: 1 (complete extracellular domain) to a hexahistidine peptide tag (protein, listed as Homo sapiens)
chain: AWITAPVALREGEDLSKKNPIAKIHSDLAEERGLKITYKYTGKGITEPPFGIFVFNKDTGELNVTSILDREETPFFLLTGYALDARGNNVEKPLELRIKVLDINDNEPVFTQDVFVGSVEELSAAHTLVMKINATDADEPNTLNSKISYRIVSLEPAYPPVFYLNKDTGEIYTTSVTLDREEHSSYTLTVEARDGNGEVTDKPVKQAQVQIRILDVNDNIPVVENKVLEGMVEENQVNVEVTRIKVFDADEIGSDNWLANFTFASGNEGGYFHIETDAQTNEGIVTLIKEVDYEEMKNLDFSVIVANKAAFHKSIRSKYKPTPIPIKVKVKNVKEGIHFKSSVISIYVSESMDRSSKGQIIGNFQAFDEDTGLPAHARYVKLEDRDNWISVDSVTSEIKLAKLPDFESRYVQNGTYTVKIVAISEDYPRKTITGTVLINVEDINDNCPTLIEPVQTICHDAEYVNVTAEDLDGHPNSGPFSFSVIDKPPGMAEKWKIARQESTSVLLQQSEKKLGRSEIQFLISDNQGFSCPEKQVLTLTVCECLHGSGCREA
modifications: C-terminal hexahistidine tag
**Q.** With B1 as the molecule, how does the “blocking activity (% inhibition)” value ([5]; 100% inhibition = complete blocking) read?
**A.** Its value is “at least 70%”.

B2: EA(491-602)-6xHis: fusion of DSG2 amino acids 491-602 of SEQ ID NO: 1 (EA) to a hexahistidine peptide tag (protein, listed as Homo sapiens)
chain: DINDNCPTLIEPVQTICHDAEYVNVTAEDLDGHPNSGPFSFSVIDKPPGMAEKWKIARQESTSVLLQQSEKKLGRSEIQFLISDNQGFSCPEKQVLTLTVCECLHGSGCREA
modifications: C-terminal 6xHis tag
**Q.** How did the “blocking activity (in words)” value [5] turn out when B2 was run?
**A.** Its value is “some effectiveness in blocking activity”.
